Results as given in publication PMC4118958, “Association of BLM and BRCA1 during Telomere Maintenance in ALT Cells” (PLoS ONE, 2014).

Target: BLM helicase, mutated in Bloom's syndrome (human (endogenous in U2OS), UniProt P54132 1-1417)
Test: cell-based or functional assay

Sequence of BLM helicase, mutated in Bloom's syndrome (P54132 whole entry, change not shown): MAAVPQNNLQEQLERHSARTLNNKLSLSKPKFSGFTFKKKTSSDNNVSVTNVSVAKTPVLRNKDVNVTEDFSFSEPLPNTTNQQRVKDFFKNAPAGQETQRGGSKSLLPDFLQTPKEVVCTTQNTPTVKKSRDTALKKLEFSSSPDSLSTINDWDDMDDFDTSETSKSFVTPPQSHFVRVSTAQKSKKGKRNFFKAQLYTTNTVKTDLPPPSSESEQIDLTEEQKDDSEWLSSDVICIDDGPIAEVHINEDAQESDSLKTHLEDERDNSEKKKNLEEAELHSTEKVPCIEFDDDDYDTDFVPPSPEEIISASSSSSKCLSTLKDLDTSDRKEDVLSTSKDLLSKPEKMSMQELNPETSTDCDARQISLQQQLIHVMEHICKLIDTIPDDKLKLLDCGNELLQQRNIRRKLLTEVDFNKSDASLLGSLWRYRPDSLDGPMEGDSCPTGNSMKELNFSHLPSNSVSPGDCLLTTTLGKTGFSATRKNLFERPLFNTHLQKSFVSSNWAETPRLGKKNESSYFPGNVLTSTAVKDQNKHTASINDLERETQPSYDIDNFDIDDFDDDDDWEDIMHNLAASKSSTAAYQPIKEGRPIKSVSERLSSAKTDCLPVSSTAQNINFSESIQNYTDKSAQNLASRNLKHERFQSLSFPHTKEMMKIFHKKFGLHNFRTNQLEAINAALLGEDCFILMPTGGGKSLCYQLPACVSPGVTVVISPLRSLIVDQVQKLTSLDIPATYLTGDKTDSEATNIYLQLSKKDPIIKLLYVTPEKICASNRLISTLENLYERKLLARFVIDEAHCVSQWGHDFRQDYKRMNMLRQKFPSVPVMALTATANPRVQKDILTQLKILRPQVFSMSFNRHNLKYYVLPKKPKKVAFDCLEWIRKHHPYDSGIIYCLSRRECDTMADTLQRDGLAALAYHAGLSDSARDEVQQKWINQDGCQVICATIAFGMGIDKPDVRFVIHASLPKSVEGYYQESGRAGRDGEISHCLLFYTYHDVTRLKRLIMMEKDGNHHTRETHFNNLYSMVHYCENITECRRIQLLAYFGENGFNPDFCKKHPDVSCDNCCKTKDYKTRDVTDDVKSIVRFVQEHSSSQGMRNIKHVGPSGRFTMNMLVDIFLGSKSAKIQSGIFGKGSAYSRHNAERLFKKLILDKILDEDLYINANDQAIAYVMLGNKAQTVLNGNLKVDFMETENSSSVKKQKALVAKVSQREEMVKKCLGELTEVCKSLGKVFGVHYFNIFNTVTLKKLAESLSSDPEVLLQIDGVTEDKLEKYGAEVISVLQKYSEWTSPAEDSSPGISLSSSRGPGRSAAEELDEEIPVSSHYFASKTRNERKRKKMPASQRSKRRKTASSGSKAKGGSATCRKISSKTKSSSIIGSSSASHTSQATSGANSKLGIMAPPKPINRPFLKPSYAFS

fold stimulation of BLM helicase activity by 3 nM full-length BRCA1 on a non-telomeric fork substrate: ~1.9 fold
fold stimulation of BLM helicase activity by 3 nM full-length BRCA1 on the fork substrate with two telomeric repeats: ~3.6 fold
initial unwinding rate of BLM (1.2 nM) on the telomeric fork in the presence of 3 nM BRCA1, fold increase: 1.7 fold
B1: BRCA1 tumor suppressor (natural protein, human (endogenous in U2OS), UniProt P38398 1-1863, looked up)
chain: MDLSALRVEEVQNVINAMQKILECPICLELIKEPVSTKCDHIFCKFCMLKLLNQKKGPSQCPLCKNDITKRSLQESTRFSQLVEELLKIICAFQLDTGLEYANSYNFAKKENNSPEHLKDEVSIIQSMGYRNRAKRLLQSEPENPSLQETSLSVQLSNLGTVRTLRTKQRIQPQKTSVYIELGSDSSEDTVNKATYCSVGDQELLQITPQGTRDEISLDSAKKAACEFSETDVTNTEHHQPSNNDLNTTEKRAAERHPEKYQGSSVSNLHVEPCGTNTHASSLQHENSSLLLTKDRMNVEKAEFCNKSKQPGLARSQHNRWAGSKETCNDRRTPSTEKKVDLNADPLCERKEWNKQKLPCSENPRDTEDVPWITLNSSIQKVNEWFSRSDELLGSDDSHDGESESNAKVADVLDVLNEVDEYSGSSEKIDLLASDPHEALICKSERVHSKSVESNIEDKIFGKTYRKKASLPNLSHVTENLIIGAFVTEPQIIQERPLTNKLKRKRRPTSGLHPEDFIKKADLAVQKTPEMINQGTNQTEQNGQVMNITNSGHENKTKGDSIQNEKNPNPIESLEKESAFKTKAEPISSSISNMELELNIHNSKAPKKNRLRRKSSTRHIHALELVVSRNLSPPNCTELQIDSCSSSEEIKKKKYNQMPVRHSRNLQLMEGKEPATGAKKSNKPNEQTSKRHDSDTFPELKLTNAPGSFTKCSNTSELKEFVNPSLPREEKEEKLETVKVSNNAEDPKDLMLSGERVLQTERSVESSSISLVPGTDYGTQESISLLEVSTLGKAKTEPNKCVSQCAAFENPKGLIHGCSKDNRNDTEGFKYPLGHEVNHSRETSIEMEESELDAQYLQNTFKVSKRQSFAPFSNPGNAEEECATFSAHSGSLKKQSPKVTFECEQKEENQGKNESNIKPVQTVNITAGFPVVGQKDKPVDNAKCSIKGGSRFCLSSQFRGNETGLITPNKHGLLQNPYRIPPLFPIKSFVKTKCKKNLLEENFEEHSMSPEREMGNENIPSTVSTISRNNIRENVFKEASSSNINEVGSSTNEVGSSINEIGSSDENIQAELGRNRGPKLNAMLRLGVLQPEVYKQSLPGSNCKHPEIKKQEYEEVVQTVNTDFSPYLISDNLEQPMGSSHASQVCSETPDDLLDDGEIKEDTSFAENDIKESSAVFSKSVQKGELSRSPSPFTHTHLAQGYRRGAKKLESSEENLSSEDEELPCFQHLLFGKVNNIPSQSTRHSTVATECLSKNTEENLLSLKNSLNDCSNQVILAKASQEHHLSEETKCSASLFSSQCSELEDLTANTNTQDPFLIGSSKQMRHQSESQGVGLSDKELVSDDEERGTGLEENNQEEQSMDSNLGEAASGCESETSVSEDCSGLSSQSDILTTQQRDTMQHNLIKLQQEMAELEAVLEQHGSQPSNSYPSIISDSSALEDLRNPEQSTSEKAVLTSQKSSEYPISQNPEGLSADKFEVSADSSTSKNKEPGVERSSPSKCPSLDDRWYMHSCSGSLQNRNYPSQEELIKVVDVEEQQLEESGPHDLTETSYLPRQDLEGTPYLESGISLFSDDPESDPSEDRAPESARVGNIPSSTSALKVPQLKVAESAQSPAAAHTTDTAGYNAMEESVSREKPELTASTERVNKRMSMVVSGLTPEEFMLVYKFARKHHITLTNLITEETTHVVMKTDAEFVCERTLKYFLGIAGGKWVVSYFWVTQSIKERKMLNEHDFEVRGDVVNGRNHQGPKRARESQDRKIFRGLEICCYGPFTNMPTDQLEWMVQLCGASVVKELSSFTLGTGVHPIVVVQPDAWTEDNGFHAIGQMCEAPVVTREWVLDSVALYQCQELDTYLIPQIPHSHY
